From paper PMC7949043, “Allosteric regulation of the nickel-responsive NikR transcription factor from Helicobacter pylori”
Changes are numbered by the printed parent chain.

B1: ureA-F (32 bp ureA promoter) (dsDNA)
DNA 1: ATATAACACTAATTCATTTTAAATAATAATTA
DNA 2: TAATTATTATTTAAAATGAATTAGTGTTATAT
B2: ureA-perf-F (32 bp) (dsDNA)
DNA 1: B1 DNA 1 with A6T, C7T, C9T
DNA 2: B1 DNA 2 with G24A, G26A, T27A

Experiments:
HpNikR [1] = molecular target: T1, HpNikR (Helicobacter pylori G27 (strain from …, UniProt A1YSQ9 1-148)); assay: fluorescence anisotropy; Ni(II) 1.2 eq per monomer; Hill n = 1.8 ± 0.1; FA: 5 nM labeled DNA, 20 mM Tris pH 7.6, 100 mM NaCl, 3 mM MgSO4, temperature not stated (metal loading at room temperature); 19F-NMR: same buffer with 10% D2O, 400-900 uM monomer, DNA 1 eq per tetramer, variable temperature from 4 C; conditions: protein: recombinant; tags: none; chain copies: 4; label: fluorescein at central T in the spacer of strand 1 (printed [F] after T14); blunt
T1 sequence: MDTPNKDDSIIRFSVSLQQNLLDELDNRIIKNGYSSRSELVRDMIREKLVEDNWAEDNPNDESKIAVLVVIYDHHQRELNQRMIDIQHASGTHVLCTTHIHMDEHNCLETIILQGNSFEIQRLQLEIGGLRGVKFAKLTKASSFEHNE

HpNikR [2] = molecular target: T1, HpNikR; assay: fluorescence anisotropy; Ni(II) 1.2 eq per monomer; Hill n = 1.9 ± 0.2; FA: 5 nM labeled DNA, 20 mM Tris pH 7.6, 100 mM NaCl, 3 mM MgSO4, temperature not stated (metal loading at room temperature); 19F-NMR: same buffer with 10% D2O, 400-900 uM monomer, DNA 1 eq per tetramer, variable temperature from 4 C; conditions: protein: recombinant; tags: none; chain copies: 4; label: fluorescein at central T in the spacer of strand 1 (printed [F] after T14); blunt

Binder | Kd (HpNikR [1]) [nM] | Kd (HpNikR [2]) [nM]
B1 | 4.5 ± 0.6 | 
B2 |  | 4.7 ± 0.4
